Experimental data: patent US20150160214A1, “Quantitation of Cellular Adhesion Dynamics Across Immobilized Receptors Under Rheological Shear Flow” (Mayo Foundation for Medical Education and Research, priority 2013, published 2015)
Several values for one entry are separate records, joined by “and”; a condition that tells them apart may be missing. Identical values can stand only once.

How the values were obtained:
Type in all cases: physicochemical
[1] = Temperature-induced unfolding by fluorescence and CD, irreversible models (Example 1)
Experimental: A1-1261 and A1-1238 were thermally unfolded using intrinsic protein tyrosine and tryptophan fluorescence with an excitation λ=280 nm and emission λ=359 nm and CD monitored at λ=222 nm. […] As the scan rate increases, the midpoint of the transition (apparent TM) also increases.
Thermal transitions were analyzed in terms of the observed midpoint of the transition, apparent TM, and also by a two-state irreversible model or a three-state irreversible model as described in the Supplement and the calculated parameters are summarized in FIGS. 5A to 5D. […] If the protein unfolding was at equilibrium and reversible, this apparent TM would remain constant at all scan rates. Extrapolation of the TM to a scan rate of 0° Celsius/min provides an indication of where reversible unfolding would occur under equilibrium conditions; 50° Celsius for A1-1238 and 48° Celsius for A1-1261 from both CD and fluorescence data. For the second transition observed by fluorescence that occurs with A1-1238, the TM extrapolates to about 73° Celsius in the limit of zero scan rate. Analysis by the two-state and three-state irreversible models yields an R^2>0.99 for both fluorescence and CD and a transition temperature, T*, that is independent of the temperature scan rate. In addition, the enthalpies of the transitions are independent of scan rate within experimental error FIG. 5B. FIGS. 5C and 5D show the resulting average T* and ΔHT*^‡±the standard deviation obtained from the fitting of the primary thermal transitions in FIG. 4A to 4D for CD and fluorescence and a total average for both methods. […] However, the unfolding enthalpy was statistically larger for A1-1238 (250±15 kJ/mol) than for A1-1261 (204±10 kJ/mol). The average T* and ΔHT*^‡ observed in the second fluorescence transition of A1-1238 is 89.1±2.2° Celsius and 360±14 kJ/mol.
Prior to all spectroscopic thermal scans, protein samples were equilibrated at 10° Celsius for 15 min to obtain a stable baseline. CD thermal scans between 10 and 95° Celsius were recorded at λ=222 nm using a protein concentration of 1 or 2 μM in a 1 cm quartz cell under moderate stirring. Scan rates were 0.5, 1.0, 1.5 and 2.0° Celsius/min. Integration time for each data point was 20 s with a 1 nm bandwidth. Fluorescence thermal scans between 10 and 95 Celsius were recorded at an emission λ=359 nm after excitation λ=280 nm or λ=295 nm using 2 μM protein in a 1 cm quartz cell with moderate stirring. Scan rates were 0.4 or 0.6, 0.9, 1.6 and 2.0° Celsius/min. At each temperature, relative fluorescence intensity was collected for 4 s and averaged. Thermal scans in the presence of N-terminal peptide at 2.0° Celsius/min were preceded by 1 h incubations at 20° Celsius with 0.02-300 μM peptide.
For an irreversible two-state transition, unfolding is kinetically controlled by a first order rate constant that varies with temperature according to the Arrhenius equation (Atkins:1994). In our analysis the inventor refers to the intermediate state as the final irreversible state for all thermal transitions involving the unfolding of A1-1261 in the absence of peptide when monitored by fluoresence, CD and DSC and for A1-1238 when monitored by CD and DSC. The following equations derived below are equally valid for any two state irreversible transitions The activation energy in going from N->I is ΔG^‡=−RT ln k^‡ and the inventor expands ln k^‡ as a function of temperature in terms of Δβ=(β−β*)=(1/RT−1/RT*) using a Taylor series, where T̂* is the temperature at which ΔG^‡=0.

[2] = Irreversible thermal denaturation by CD, intrinsic fluorescence and ANS fluorescence (Example 2); settings: 2° Celsius/min
Experimental: The unfolding of disulfide-intact A1 and RCAM A1 was also monitored via CD at 222 nm, intrinsic protein fluorescence at 280 nm/359 nm and ANS fluorescence at 350 nm/495 nm as a function of temperature.
CD thermalscans were recorded between 10 and 95° Celsius at 222 nm with a protein concentration of 1 μM in a 1 cm quartz cell under moderate stirring. Prior to each measurement protein samples were equilibrated at 10° Celsius for 10-15 min in order to obtain a stable baseline. The scanrate for all Thermalscans was 2° Celsius/min. The integration time for each data point was 20 s, the bandwidth 1 nm. All measured CD data were converted into mean molar ellipticities per amino acid residue.
Thermalscans monitoring protein fluorescence were recorded at an emission wavelength of 359 nm after excitation at 280 nm using a protein concentration of 2 μM in a 1 cm quartz cell under moderate stirring. ANS-Thermalscans were recorded at 495 nm after Excitation at 350 nm using 1 μM protein and 100 μM ANS. Prior to any performed thermalscan samples were equilibrated for 10-15 min. The scanrate was 2° Celsius/min. At each temperature between 10 or 20° Celsius and 95° Celsius relative fluorescence intensity was collected for 4 s and averaged.

[3] = Secondary structure contribution calculated from CD-spectra (CDNN)
Experimental: Fluorescence and circular dichroism spectra of A1 and of RCAM A1 were measured to compare the basic spectroscopic properties of the two protein variants (FIG. 13). The fluorescence spectrum of native A1 has a relatively low intensity with λmax of ˜345 nm. In presence of 2 M GdnHCl the fluorescence intensity increases as the interior of the protein becomes solvent accessible and a red shift of the spectrum to ˜351 nm occurs. […] Nevertheless, RCAM A1 is still retains significant secondary structure content in solution; the distribution of which is summarized in Table 1. In the near UV, the CD of disulfide-intact A1 show a well-defined spectral banding pattern between 260 and 300 nm indicating significant tertiary structure content that is absent in RCAM A1.
Urea and GdnHCl induced unfolding of A1 and of RCAM A1 at 25° Celsius was monitored via CD at 222 nm on an Aviv Biomedical Model 420C circular dichroism spectrometer. A 1 mm quartz cuvette and protein concentrations of 5 or 10 μM were used. Samples were equilibrated in their urea or GdnHCl containing buffer at 25° Celsius overnight. CD-signal was averaged for 5 to 10 min using an integration time of 1 s. CD-spectra were measured at 20° Celsius using 0.1 or 1 mm quartz cells with a step width of 1 nm between 190 and 260 nm with an integration time of 20 s and a bandwidth of 1 nm. CD-spectra in the near UV range (260-360 nm) were recorded using a 5 cm quartz cell with a 120 s integration time. Transition curves and protein spectra were corrected for the CD Signal of the corresponding buffer.

[4] = covalently linked N-terminal peptide
[5] = calculated from CD-spectra, CDNN

Substance: A1-1238: Recombinant human vWF A1 domain, amino acids Q1238-P1471, with N-terminal 6×His-Tag, disulfide intact
- Apparent TM extrapolated to a scan rate of 0° Celsius/min, primary transition ([1]; CD and fluorescence data): 50 ° Celsius and 49.8±1.2 ° Celsius
- Transition temperature T*, primary unfolding transition ([1]; average of CD and fluorescence): 63.9±0.6 ° Celsius
- Unfolding enthalpy ΔHT*‡, primary unfolding transition ([1]; average of CD and fluorescence): 59.8 ± 3.59 kcal/mol
- Average T*, second fluorescence transition [1, 4]: 89.1±2.2 ° Celsius
- Average ΔHT*‡, second fluorescence transition [1, 4]: 86 ± 3.35 kcal/mol
- Apparent TM extrapolated to zero scan rate, second transition by fluorescence ([1]; fluorescence): about 73 ° Celsius
- T* ([2]; ANS Fluorescence): 64.4 °C
- ΔH* ([2]; ANS Fluorescence): 63.8 kcal/mol
- T* ([2]; Circular Dichroism): 65 °C
- ΔH* ([2]; Circular Dichroism): 65 kcal/mol
- T* ([2]; Intrinsic Fluorescence): 63 °C
- ΔH* ([2]; Intrinsic Fluorescence): 60.7 kcal/mol
- % α-Helix [3, 5]: 38.0%
- % β-sheet [3, 5]: 15.6%
- % Remainder ([3]; β-turns and random coil structure): 46.4%
